Amyloid nucleation score data for 140 substances are collected here from the supplement of paper PMC12042874.

± gives the uncertainty stated by the source.

A short description of the data set: amyloid nucleation score (Sup35N fusion, yeast selection) (log enrichment); library NNK2; higher = more nucleation; inactive = no reads after selection. Summed up:
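Libraries of peptides of 20 random codons fused to Sup35N were expressed in psi-negative yeast and induced 24 hours with 100 μM copper sulfate. Selection was 7 days at 30°C on medium lacking adenine and uracil, and plasmid inserts were Illumina-sequenced before and after selection. Nucleation score is the DiMSum log enrichment of output over input reads, centred on the mode score of non-aggregating sequences, and sequences with under 100 input reads were left out.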

Substance VSYDSNAILTFVNSYSRRRL had an amyloid nucleation score of 1.48 ± 0.19.
For FLMSTSLRSCICCVLLPSDN the value was 8.908 ± 0.032; for TCVCDIYSSTVVSFLHSNRV, 5.44 ± 0.1.
Take ASEGVGCFV: the amyloid nucleation score result was “inactive”.
The figure for ANLRNSW is -0.82 ± 0.56.
The figure for DRVLRVDSLSAVAVNNLVVR is -0.178 ± 1.1.
The figure for FMGVKRVVTRVVCLQIGQPT is 7.11 ± 0.071.
With GFLQSGCPSTLLSLRKRAIL, the amyloid nucleation score was 0.307 ± 0.51.
The figure for ICFVFF is -0.777 ± 1; for ISETLASSVWRRCVSCGYVM it is 3.93 ± 0.075; for MYTYLINVNVSDAFTLYGLE it is 4.43 ± 0.056.
For PMICEHAGHSGWH, the amyloid nucleation score was 1.11 ± 0.22.
The figure for GFHIGDVCNYGVVFSSVARL is 5.863 ± 0.05; for RLSVAFRRVRDRYVLLIFLP it is 0.548 ± 0.55; for YILLFSVGICPPRSWLIYCP it is 4.21 ± 0.11.
The substance FCFLKFCMLHRLLVFLWRQF yielded an amyloid nucleation score of 1.54 ± 0.11.
Substance GKRYCWSLAVNRGFTDTLGV yielded an amyloid nucleation score of 0.261 ± 0.46.
Substance CTKDTHNRVGHLRSHVDGSL came in with an amyloid nucleation score of 0.572 ± 0.8.
For SAQWGREMVISARHRVPVEL, the amyloid nucleation score is 4.92 ± 0.079.
For WYRPTSYRRKHKGDISLDLG the value was -0.226 ± 1.1; for ETVFRLFFSYRGVANHVVPG, -0.408 ± 0.63; for VCCRDKMSHCRSAALNMVLL, 3.49 ± 0.12.
For SSKRVMKYRCDRWMADTCRK the value was 0.201 ± 0.8; for LRLFNLKQKKNRKNWRMFAG, -0.979 ± 0.6.
With KSRWRQRILVPIPWWARHVE, the amyloid nucleation score worked out at 0.239 ± 0.29.
The figure for YSVEYFCHMFSLTCFNKF is 7.388 ± 0.057; for DLRHASVVVNRWILCLLGHI it is 0.106 ± 1.
For FSVLMEDHSRFIF, the amyloid nucleation score entry was “inactive”.
Regarding ACRLISLVML, the amyloid nucleation score result is “inactive”.
For PYRPHYAAVLRLAR the value was 0.08 ± 0.33; for YINKKLGEAKGRDLLVRLGQ, 3.63 ± 0.07; for GLFWVCAGGGKVGEYRYSGV, 0.021 ± 0.39.
The figure for VTLGVWRPAFFAFWTPRKQY is -0.35 ± 1.1; for IGLKYSLWVVGFEVRLRCAD it is 3.86 ± 0.07; for GFPVWVYYKMDLYCLSVKGI it is -0.672 ± 0.61.
For VVLTAVHFQCLLTLTVPIEV the value was -0.158 ± 0.48; for NKDRGGRYSICRNYANPFVA, 0.034 ± 0.29.
Turning to RIVFHYVCTVLR, the amyloid nucleation score was -0.964 ± 0.76.
For VSRSSRWYNRIGMVRSVWNK the value was -0.139 ± 0.21; for IKCLYV, -0.127 ± 1.
For VGFHEDNMEVR the value was “inactive”.
For WLNVDYSYSALRLHNCNGLM the value was 1.64 ± 0.085; for LLRGRFGDSVSAVGFSGFCN, -0.502 ± 0.45; for LLDACHLGNWTAGNGYYDRV, -0.531 ± 1.1.
GEFSLF gave an amyloid nucleation score of 0.2 ± 0.37.
For QDDGM the value was -0.826 ± 0.41.
For FSIKPLGQKDIR the value was 5.47 ± 0.073; for FIFVVMVMVWFWTGLCLSYN, “inactive”; for RECFLNPWSVYVRFS, -0.086 ± 0.44.
For NSIAYPACLNKWGWIKFSSY the value was -1.41 ± 0.29; for YHEIFF, -0.243 ± 0.4; for IEVRRKPSLDLKLDGEGIVR, 1.37 ± 0.32.
Substance TLLWSRTMYVGIPSYRYGGA showed an amyloid nucleation score of 0.676 ± 0.8.
Take YIKASKMPAEA: the amyloid nucleation score was -0.216 ± 0.55.
For TTSLSYFLIQKALLWKVEYH the value was -1.38 ± 0.38; for GHPSIDAQTPV, 1.39 ± 0.47.
For EDVDICRHFYRGVVNNGYQR the value was 0.328 ± 0.57.
For MSMLMRVRCEISVTTML, the amyloid nucleation score was determined as 4.498 ± 0.031.
With PSSYGWCMLFLVWDIQSTL, the amyloid nucleation score is -0.829 ± 1.
In turn, PSHSRMRIMNSTYSSFLLKV gave an amyloid nucleation score of 0.214 ± 0.18.
The entry for YPLCARILLNKDLWDGYLNS is “inactive”; for LVSMNFYCMILGIESLFVLS it is 4.04 ± 0.074; for IGKSCRLRA it is 0.609 ± 0.46.
For YSCRGEVKLKCDTSVGGPRR the value was 0.922 ± 0.2.
The figure for DRCMFNYVIEVHVYSCVRFW is 4.67 ± 0.079.
As for GSAHTCSTS, the amyloid nucleation score was found to be 0.077 ± 0.3.
For FMVILYLDSLSLPWNWIVFG the value was 0.098 ± 0.54; for MKGNSSGVA, 1.25 ± 0.31.
The figure for FSKHNSYGTNINNLFFSLLH is 6.19 ± 0.077.
Regarding TKRAIDWA, the amyloid nucleation score is 0.669 ± 0.8.
For VGDVKVWTVRSSTNATEKFL the value was 0.551 ± 0.27; for HELAIISN, 2.97 ± 0.17.
The figure for YIRLQAIQSEVERSSVPVIK is 2.16 ± 0.083; for SCYDVCPLCSHCRIGTKM it is 1.92 ± 0.2.
For MYNRSRLSFA the value was -0.666 ± 1; for RSVKDTPCLKLVLMKRDTLK, 0.092 ± 0.54.
CNSDGWCRIGSAVLPVRSID came in with an amyloid nucleation score of -0.441 ± 0.35.
The figure for GSYHFHASNTD is -0.555 ± 0.79; for LFCVDNVVKKGTVP it is -0.365 ± 0.76.
The substance GPLFPNFKSLGGEYRRH came in with an amyloid nucleation score of 0.325 ± 0.42.
The figure for YEFCVAFFDRNNCNREP is -1.6 ± 0.75; for FSYMWAHTGSFPRRQVIITI it is -0.596 ± 0.55.
For RYMKAG the value was -0.558 ± 0.54; for FLSRSQRCMIG, 0.313 ± 0.64.
The figure for QLNIHLMNLRI is 9.23 ± 0.056.
For NLSCNLFVSFWYGW, the amyloid nucleation score amounted to 4.67 ± 0.068.
Turning to HVYIGVNLKRENKTHQTSSV, the amyloid nucleation score is 4.77 ± 0.064.
The figure for GRFIHKIVLNDGV is 0.084 ± 0.56; for NYVCSWMLRFSVGRSQIPAV it is -0.924 ± 0.76.
For DYCMFFGVTRISSLH the value was 3.95 ± 0.073; for TYFVVGDSLSVIFSGRNWGV, 5.408 ± 0.043.
The figure for RKCSSVLRGHTVQDVHFFSA is -0.056 ± 0.56; for ASMDSSVPRAGDAGRSDMSS it is 2.26 ± 0.14; for VRSGTLFARTKWEESSCHLF it is 0.641 ± 0.4.
HTYNLSKR had an amyloid nucleation score of -1.1 ± 0.62.
CKLEQYRASWINLVTHLDEA gave an amyloid nucleation score of 0.073 ± 0.63.
TVLGRGLILWDVGGLSE yielded an amyloid nucleation score of -0.906 ± 0.34.
For CRLCSGLREMQPIRLM the value was 0.77 ± 0.51.
For RIYGILVSFYCIVYDGFSGG the value was 1.9 ± 0.082; for LRTTGLHFSSRLMVFTLNWI, -0.237 ± 0.33; for DELDVFG, -0.893 ± 0.44.
The figure for WTSLSNVFRLTNMYTRVSKW is -0.55 ± 0.76; for NRRLRHIWRNNSLTSKN it is -0.279 ± 0.25; for CSFGPIVAD it is -1.12 ± 0.63.
EDLWWVQLSNLKDSVDEYCR came in with an amyloid nucleation score of 0.007 ± 0.21.
For ASSFMSDGRT the value was 0.35 ± 0.56.
The figure for GYNGMGRCINWVRKYRWLLW is 5.355 ± 0.033; for WRLSLGYPVSALQMRMPGTL it is 2.1 ± 0.22; for LVRSIHMVPLTWFRSNSGMF it is 4.13 ± 0.078.
For FTTPSRS the value was 0.623 ± 0.53.
Consider LVCNPYMRDTARSESLGSAW, for which the amyloid nucleation score was determined as 0.923 ± 0.66.
The figure for GILMISDAYDIREYFKLVTF is -1.32 ± 0.62.
For the substance KSSNHITRFRSHSMETSRMV, the amyloid nucleation score result is “inactive”.
For KMKAGAMWCGSRIASKSRRG the value was 1.51 ± 0.15; for VGFGVFVV, 0.213 ± 0.24.
The entry for NATLNNVERFRAFRGTFLDY is “inactive”; for MNIAVIHNMVQGSKAPDYHF it is 4.67 ± 0.075.
The figure for SSFVNRWCEHYNGVVVSWLL is 0.236 ± 0.17; for FYWHCKGWQRISLGRFIGDC it is -0.622 ± 0.61; for LSCHSDITILHDYTNLLSFI it is -0.007 ± 0.63.
Turning to TGCVKGYSSRWWESFYGGTR, the amyloid nucleation score is -0.762 ± 0.79.
The figure for QPCLHAMV is 0.319 ± 0.56; for SYSDPETFISWVLVDWCLMS it is -0.753 ± 0.55.
For DIVANDKMMIIRVIMGTWCH the value was 0.927 ± 0.45.
On to VCVFTDLGCRY, for which the amyloid nucleation score was -0.493 ± 1.1.
The figure for CWRNTDLKGLGNWPSLLASV is 0.589 ± 0.57; for WWKGWARTNNVMRAFVVMFY it is -0.655 ± 0.44; for TYVYNGAYVVGNWL it is -0.964 ± 0.54.
Substance VMFTGHCVTRNDRDRLVLTY had an amyloid nucleation score of -0.522 ± 0.76.
Regarding FSLWSLERLKPIGLSSRMSG, the amyloid nucleation score amounted to 3.45 ± 0.16.
The figure for NCRLKLPSP is 3.69 ± 0.05; for NWPMGGHVYKHRVSHSG it is 0.095 ± 0.53.
In turn, SLIVAIRFTA gave an amyloid nucleation score of 2.5 ± 0.24.
The figure for HVVLTLGLRISQHRLLRYKK is 5.64 ± 0.095; for GLGVSTKRLYFTMMADCFNG it is 0.131 ± 0.49; for RSLYVVFWIAGFEWGEIRVA it is 0.822 ± 0.26.
For FMECVSNNRMELVAGNEKGC the value was 0.082 ± 0.27; for PDAIVSGVEHAKGTSDAALS, -0.15 ± 0.28.
For SAFLRIINACTATFHENSAR the value was “inactive”; for TWVGWS, -0.841 ± 0.79.
